Results published in patent publication US11111484B2, “Streptococcus bacteriophage lysins for detection and treatment of gram positive bacteria” (priority 2011, dated 2021).
Several values for one entry are separate records, joined by “and”; a condition that tells them apart may be missing. Equal values may be shown once.

Assays:
[1] = test system: MRSA strain MW2 and S. pyogenes strain MGAS5005; assay: murine septicemia model, mixed MRSA and S. pyogenes infection; type: in vivo, FVB/NJ mice; conditions: PlySs2 2 mg, ClyS 1 mg + PlyC 1 mg
Method: The Rockefeller University's Institutional Animal Care and Use Committee approved all in vivo protocols. A systemic infection model described in Daniel, A. et al., was used to test for the in vivo efficacy of PlySs2 against multiple gram-positive bacteria. Briefly, 4-5 week old female FVB/NJ mice (weight range 15 to 20 g) were obtained from The Jackson Laboratory (Bar Harbor, Me.). After a period of acclimation, mice were injected intraperitoneally (IP) with 0.5 ml of mid log-phase (OD600 0.5) bacteria diluted with 5% hog gastric mucin (Sigma) in saline. Bacterial suspensions contained ˜5×10^5 CFU/ml of MW2, a PVL toxin-encoding MRSA strain, ˜1×10^7 of MGAS5005, an M1 serotype of Streptococcus pyogenes that is virulent in humans and mice (Musser), or a combination of both bacteria simultaneously at the above concentrations for the mix infection experiments. Actual bacterial inoculation titers were calculated by serial dilution and plating to Columbia blood agar plates for each experiment. […] The survival rate for each experimental group was monitored every 12 hours for the first 24 hours then every 24 hours up to 10 days post-infection. The data were statistically analyzed by Kaplan Meier Survival curves and a Logrank test performed for 95% confidence intervals using the Prism computer program (GraphPad Software; La Jolla, Calif.). […]

[2] = test system: B. subtilis SL4; assay: ΔPlySs1 OD600 lysis, 1 hr, optimal buffering conditions; type: cell-based, Bacillus subtilis
[3] = test system: S. aureus RN4220; assay: as above; type: cell-based, Staphylococcus aureus

B1: PlySs2: Streptococcus suis prophage lysin, SEQ ID NO:3; N-terminal CHAP domain and C-terminal SH3-type 5 domain (protein, listed as Streptococcus suis)
chain: MTTVNEALNNVRAQVGSGVSVGNGECYALASWYERMISPDATVGLGAGVGWVSGAIGDTISAKNIGSSYNWQANGWTVSTSGPFKAGQIVTLGATPGNPYGHVVIVEAVDGDRLTILEQNYGGKRYPVRNYYSAASYRQQVVHYITPPGTVAQSAPNLAGSRSYRETGTMTVTVDALNVRRAPNTSGEIVAVYKRGESFDYDTVIIDVNGYVWVSYIGGSGKRNYVATGATKDGKRFGNAWGTFK
In the case of B1, the “survival of mixed infection” value [1] is reported as 92% and the “survival of mixed infection (mice surviving/total)” value [1] is reported as 22 of 24 and 22/24.

B2: ΔPlySs1: truncated PlySs1 lysin, SEQ ID NO:2, N-terminal 254 amino acids: only N-terminal enzymatic and central binding domains (protein, listed as Streptococcus suis)
chain: MTINLETSIRWMSDRVGKVSYSMDYRNGPNSYDCSSAVYYALMAGGAISAGWAVNTEYMHDWLIRNGYVLVAENKPFNAQRHDVCILGKRGYSSGAGGHVVIFVDNVNVIHCNYARNGISIDNYNQVHRGMYYYLYRPANQPSISNKSLDQLVKETLAGVHGNGDTRKASLGSQYEAVMAVINGKASASEKSDEELAREVLAGKHGAGEDRKRSLGPRYEPVQAKVNELLKAKEKPSETAKNEPQTVQFKEDGDL
With B2 the “lysis value after 1 hr (treated/untreated OD600 ratio)” value ([2]; 6.5 μg/ml) was 1.07, the “lysis value after 1 hr (treated/untreated OD600 ratio)” value ([2]; 13 μg/ml) was 1.05 and the “lysis value after 1 hr (treated/untreated OD600 ratio)” value ([2]; 30 μg/ml) was 1.04. For the same molecule, the “lysis value after 1 hr (treated/untreated OD600 ratio)” value ([2]; 65 μg/ml) was 1.03, the “lysis value after 1 hr (treated/untreated OD600 ratio)” value ([2]; 130 μg/ml) was 0.96 and the “lysis value after 1 hr (treated/untreated OD600 ratio)” value ([3]; 6.5 μg/ml) was 0.89. The “lysis value after 1 hr (treated/untreated OD600 ratio)” value ([3]; 13 μg/ml) was 0.78, the “lysis value after 1 hr (treated/untreated OD600 ratio)” value ([3]; 30 μg/ml) was 0.55 and the “lysis value after 1 hr (treated/untreated OD600 ratio)” value ([3]; 65 μg/ml) was 0.31. For the same molecule, the “lysis value after 1 hr (treated/untreated OD600 ratio)” value ([3]; 130 μg/ml) was 0.10.
